Data set [1] deals with HeLa Kyoto. Nature of the data set: solubility in G1/S (NP-40 vs SDS abundance) (log2 ratio); higher = more soluble. Particulars: cell cycle stage: G1/S.
For data set [2], the system named is HeLa Kyoto. Briefly: melting temperature (median over replicates), in situ; higher = more thermally stable.
Data set [3] has as its system HeLa Kyoto. Nature of the data set: solubility change mitosis vs G1/S (difference of NP-40 vs SDS log2 ratios) (log2 ratio difference); higher = more soluble in mitosis.
Data set [4] deals with HeLa Kyoto. Briefly: thermal stability score vs G1/S (z-score of summed log2 fold changes over temperatures); higher = more thermally stable than in G1/S.
Where [5] appears, read: cell cycle stage: early G1 (4.5 h after nocodazole release).

The text below walks through data of the supplement of paper PMC5998384.
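Wherever melting temperature (median over replicates), in situ is given: HeLa Kyoto cells synchronized by double thymidine or nocodazole block, proteins quantified by TMT10plex mass spectrometry, three independent biological replicates.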
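Wherever solubility change mitosis vs G1/S (difference of NP-40 vs SDS log2 ratios) is given: synchronized HeLa Kyoto cells (double thymidine block for G1/S, nocodazole release for mitosis), protein amounts in NP-40 versus SDS lysates quantified by mass spectrometry, three biological replicates.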
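Wherever solubility in G1/S (NP-40 vs SDS abundance) is given: HeLa Kyoto cells arrested at G1/S by double thymidine block, proteins quantified by TMT10plex mass spectrometry in mild NP-40 versus SDS extracts, three biological replicates.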
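Wherever thermal stability score vs G1/S (z-score of summed log2 fold changes over temperatures) is given: synchronized HeLa Kyoto cells, proteins quantified by TMT10plex mass spectrometry, three biological replicates, mitosis taken 0.5 h after nocodazole release, G1/S directly after double thymidine block.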

As for “MLGMIKNSLFGSVETWPWQVLSKGDKEEVAYEERACEGGKFATVEVTDKPVDEALREAMPKVAKYAGGTNDKGIGMGMTVPISFAVFPNEDGSLQKKLKVWFRIPNQFQSDPPAPSDKSVKIEEREGITVYSMQFGGYAKEADYVAQATRLRAALEGTATYRGDIYFCTGYDPPMKPYGRRNEIWLLKT [HEBP1]”, the “solubility in G1/S (log2)” value with HeLa Kyoto [1] is 0.27. For the same substance, the melting temperature with HeLa Kyoto [2] (cell cycle stage: G1/S) turned out to be 52.9 °C; in the data set on HeLa Kyoto [2] (cell cycle stage: mitosis), 53.3 °C. Besides, in the data set on HeLa Kyoto [3], the “solubility change mitosis (log2)” value turned out to be 0.0399. In addition, the thermal stability score in the data set with HeLa Kyoto [4] (setting [5]) is -1.08; with HeLa Kyoto [4] (cell cycle stage: mitosis), -2.04.

For the substance “MSPTISHKDSSRQRRPGNFSHSLDMKSGPLPPGGWDDSHLDSAGREGDREALLGDTGTGDFLKAPQSFRAELSSILLLLFLYVLQGIPLGLAGSIPLILQSKNVSYTDQAFFSFVFWPFSLKLLWAPLVDAVYVKNFGRRKSWLVPTQYILGLFMIYLSTQVDRLLGNTDDRTPDVIALTVAFFLFEFLAATQDIAVDGWALTMLSRENVGYASTCNSVGQTAGYFLGNVLFLALESADFCNKYLRFQPQPRGIVTLSDFLFFWGTVFLITTTLVALLKKENEVSVVKEETQGITDTYKLLFAIIKMPAVLTFCLLILTAKIGFSAADAVTGLKLVEEGVPKEHLALLAVPMVPLQIILPLIISKYTAGPQPLNTFYKAMPYRLLLGLEYALLVWWTPKVEHQGGFPIYYYIVVLLSYALHQVTVYSMYVSIMAFNAKVSDPLIGGTYMTLLNTVSNLGGNWPSTVALWLVDPLTVKECVGASNQNCRTPDAVELCKKLGGSCVTALDGYYVESIICVFIGFGWWFFLGPKFKKLQDEGSSSWKCKRNN [SLC33A1]”, in the data set with HeLa Kyoto [1], the “solubility in G1/S (log2)” value is -0.0645. Besides, the melting temperature is 58.5 °C with HeLa Kyoto [2] (cell cycle stage: G1/S) and 57.9 °C in the data set on HeLa Kyoto [2] (cell cycle stage: mitosis). Moreover, the “solubility change mitosis (log2)” value in the data set with HeLa Kyoto [3] was -0.141. The figures for the thermal stability score in the data set on HeLa Kyoto [4] (setting [5]) and in the data set on HeLa Kyoto [4] (cell cycle stage: mitosis) were -1.24 and -1.12, respectively.

“MLHFNRCHHLKKITQKCFSSIHVKTDKHAQRFLSRTFALAELRKSWYSTHSLVGDKNIILMGPPGAGKTTVGRIIGQKLGCCVIDVDDDILEKTWNMSVSEKLQDVGNEQFLEEEGKAVLNFSASGSVISLTGSNPMHDASMWHLKKNGIIVYLDVPLLDLICRLKLMKTDRIVGQNSGTSMKDLLKFRRQYYKKWYDARVFCESGASPEEVADKVLNAIKRYQDVDSETFISTRHVWPEDCEQKVSAKFFSEAVIEGLASDGGLFVPAKEFPKLSCGEWKSLVGATYVERAQILLERCIHPADIPAARLGEMIETAYGENFACSKIAPVRHLSGNQFILELFHGPTGSFKDLSLQLMPHIFAHCIPPSCNYMILVATSGDTGSAVLNGFSRLNKNDKQRIAVVAFFPENGVSDFQKAQIIGSQRENGWAVGVESDFDFCQTAIKRIFNDSDFTGFLTVEYGTILSSANSINWGRLLPQVVYHASAYLDLVSQGFISFGSPVDVCIPTGNFGNILAAVYAKMMGIPIRKFICASNQNHVLTDFIKTGHYDLRERKLAQTFSPSIDILKSSNLERHLHLMANKDGQLMTELFNRLESQHHFQIEKALVEKLQQDFVADWCSEGECLAAINSTYNTSGYILDPHTAVAKVVADRVQDKTCPVIISSTAHYSKFAPAIMQALKIKEINETSSSQLYLLGSYNALPPLHEALLERTKQQEKMEYQVCAADMNVLKSHVEQLVQNQFI [THNSL1]”: in the data set on HeLa Kyoto [1], the “solubility in G1/S (log2)” value was -0.0605. In addition, the melting temperature was 52.5 °C in the data set with HeLa Kyoto [2] (cell cycle stage: G1/S) and 52.7 °C in the data set with HeLa Kyoto [2] (cell cycle stage: mitosis). In the data set with HeLa Kyoto [3], the “solubility change mitosis (log2)” value is -0.0759. Also, the thermal stability score with HeLa Kyoto [4] (setting [5]) is 0.435; in the data set with HeLa Kyoto [4] (cell cycle stage: mitosis), -0.697.

As to “MEAQAQGLLETEPLQGTDEDAVASADFSSMLSEEEKEELKAELVQLEDEITTLRQVLSAKERHLVEIKQKLGMNLMNELKQNFSKSWHDMQTTTAYKKTHETLSHAGQKATAAFSNVGTAISKKFGDMSYSIRHSISMPAMRNSPTFKSFEERVETTVTSLKTKVGGTNPNGGSFEEVLSSTAHASAQSLAGGSRRTKEEELQC [TPD52L1]”, the “solubility in G1/S (log2)” value in the data set on HeLa Kyoto [1] turned out to be 0.458. Also, the figures for the melting temperature with HeLa Kyoto [2] (cell cycle stage: G1/S) and in the data set on HeLa Kyoto [2] (cell cycle stage: mitosis) were 54.4 °C and 53.6 °C, respectively. Besides, the “solubility change mitosis (log2)” value with HeLa Kyoto [3] worked out at 0.111. The thermal stability score is -3.64 in the data set on HeLa Kyoto [4] (setting [5]) and -3.95 in the data set with HeLa Kyoto [4] (cell cycle stage: mitosis).

“MPLENLEEEGLPKNPDLRIAQLRFLLSLPEHRGDAAVRDELMAAVRDNNMAPYYEALCKSLDWQIDVDLLNKMKKANEDELKRLDEELEDAEKNLGESEIRDAMMAKAEYLCRIGDKEGALTAFRKTYDKTVALGHRLDIVFYLLRIGLFYMDNDLITRNTEKAKSLIEEGGDWDRRNRLKVYQGLYCVAIRDFKQAAELFLDTVSTFTSYELMDYKTFVTYTVYVSMIALERPDLREKVIKGAEILEVLHSLPAVRQYLFSLYECRYSVFFQSLAVVEQEMKKDWLFAPHYRYYVREMRIHAYSQLLESYRSLTLGYMAEAFGVGVEFIDQELSRFIAAGRLHCKIDKVNEIVETNRPDSKNWQYQETIKKGDLLLNRVQKLSRVINM [PSMD6]”: the “solubility in G1/S (log2)” value in the data set on HeLa Kyoto [1] was -0.15. Also, the melting temperature with HeLa Kyoto [2] (cell cycle stage: G1/S) was determined as 53.3 °C; with HeLa Kyoto [2] (cell cycle stage: mitosis), 53.2 °C. In addition, the “solubility change mitosis (log2)” value in the data set with HeLa Kyoto [3] was -0.189. Moreover, the thermal stability score was found to be 1 with HeLa Kyoto [4] (setting [5]) and 1.09 with HeLa Kyoto [4] (cell cycle stage: mitosis).

Turning to DOCK1, in the data set on HeLa Kyoto [1], the “solubility in G1/S (log2)” value was -0.195. Besides, the melting temperature was found to be 50.7 °C in the data set on HeLa Kyoto [2] (cell cycle stage: G1/S) and 50 °C with HeLa Kyoto [2] (cell cycle stage: mitosis). Further, the “solubility change mitosis (log2)” value in the data set with HeLa Kyoto [3] was -0.0711. In addition, the thermal stability score was found to be 0.388 with HeLa Kyoto [4] (setting [5]) and 0.518 in the data set with HeLa Kyoto [4] (cell cycle stage: mitosis).

As for “MPENVAPRSGATAGAAGGRGKGAYQDRDKPAQIRFSNISAAKAVADAIRTSLGPKGMDKMIQDGKGDVTITNDGATILKQMQVLHPAARMLVELSKAQDIEAGDGTTSVVIIAGSLLDSCTKLLQKGIHPTIISESFQKALEKGIEILTDMSRPVELSDRETLLNSATTSLNSKVVSQYSSLLSPMSVNAVMKVIDPATATSVDLRDIKIVKKLGGTIDDCELVEGLVLTQKVSNSGITRVEKAKIGLIQFCLSAPKTDMDNQIVVSDYAQMDRVLREERAYILNLVKQIKKTGCNVLLIQKSILRDALSDLALHFLNKMKIMVIKDIEREDIEFICKTIGTKPVAHIDQFTADMLGSAELAEEVNLNGSGKLLKITGCASPGKTVTIVVRGSNKLVIEEAERSIHDALCVIRCLVKKRALIAGGGAPEIELALRLTEYSRTLSGMESYCVRAFADAMEVIPSTLAENAGLNPISTVTELRNRHAQGEKTAGINVRKGGISNILEELVVQPLLVSVSALTLATETVRSILKIDDVVNTR [CCT4]”, in the data set on HeLa Kyoto [1], the “solubility in G1/S (log2)” value came out at 0.192. The melting temperature in the data set with HeLa Kyoto [2] (cell cycle stage: G1/S) worked out at 53.6 °C; in the data set with HeLa Kyoto [2] (cell cycle stage: mitosis) it was 53.1 °C. In the data set on HeLa Kyoto [3], the “solubility change mitosis (log2)” value is -0.141. Moreover, the thermal stability score is -1.23 with HeLa Kyoto [4] (setting [5]) and -2.24 with HeLa Kyoto [4] (cell cycle stage: mitosis).

With FAM91A1, the “solubility in G1/S (log2)” value in the data set on HeLa Kyoto [1] was -0.0537. The melting temperature stood at 51.9 °C with HeLa Kyoto [2] (cell cycle stage: G1/S) and 51.3 °C with HeLa Kyoto [2] (cell cycle stage: mitosis). Besides, the “solubility change mitosis (log2)” value with HeLa Kyoto [3] is -0.101. The thermal stability score with HeLa Kyoto [4] (setting [5]) was -0.197; with HeLa Kyoto [4] (cell cycle stage: mitosis), -1.55.
